# Where a chain is given by its changes, count along the chain named.
# B1: 2381F11 (designed binder)
# chain: MGVSDVPRDLEVVAATPTSLLISWDAPADGGYGYYRITYGETGGNSPVQEFTVPVSKSTATISGLKPGVDYTITVYAVEYTFPGAGYYHRPISINYRTEIDKPSQHHHHHH
# notes: Anti-PCSK9 Adnectin, His6-tagged
# B2: 2381B08 (designed binder)
# chain: B1 chain with V55S, S58G
# notes: as for B1
# B3: 2381D04 (designed binder)
# chain: MGVSDVPRDLEVVAATPTSLLISWEPFSRLPGGGEYYRITYGETGGNSPLQQFTVPGSKGTATISGLKPGVDYTITVYAVEFPYDHSGYYHRPISINYRTEIDKPSQHHHHHH
# notes: as for B1
# B4: 2381B02 (designed binder)
# chain: B3 chain with F82Y, H86Y
# notes: as for B1
# B5: 2381B04 (designed binder)
# chain: B3 chain with F82Y, D85E
# notes: as for B1
# B6: 2382B09 (designed binder)
# chain: MGVSDVPRDLEVVAATPTSLLISWDAPADAYGYYRITYGETGGNSPVQEFTVPVSKGTATISGLKPGVDYTITVYAVEFDYPGSGYYHRPISINYRTEIDKPSQHHHHHH
# notes: as for B1
# B7: 2382C09 (designed binder)
# chain: B6 chain with D29E, A30G, Y81F
# notes: as for B1
# B8: 2382H09 (designed binder)
# chain: B6 chain with D29A, V54S, Y81F
# notes: as for B1
# B9: 2382B10 (designed binder)
# chain: B6 chain with V54S, F79Y, Y81F
# notes: as for B1
# B10: 2382H10 (designed binder)
# chain: B6 chain with D29G, A30G, Y81F
# notes: as for B1
# B11: 2451H07 (designed binder)
# chain: MGITDVPRDLEVVAATPTSLLISWNPPDVNYGYYRITYGETGGNSPLQEFTVPVSKGTATISGLKPGVDYTITVYAVEYPYAHAGYYHRPISINYRTEIDKPSQHHHHHH
# notes: as for B1
# B12: 2382D09 (designed binder)
# chain: B6 chain with D29E, A30G, Y81F, S84A
# notes: as for B1
# B13: 2381B08 (designed binder)
# chain: B1 chain with V55S, S58G
# B14: 2381G09 (designed binder)
# chain: B1 chain with D29G, G30D, S58G, Y80F
# B15: 2381H09 (designed binder)
# chain: B1 chain with D29G, S58G, Y80F, T81D, P83V
# B16: 2382H03 (designed binder)
# chain: B1 chain with D29E, G31A, S58G, T81P, F82Y, G84F
# B17: 2382G04 (designed binder)
# chain: B1 chain with D29G, V55S, S58G, Y80F, T81D
# B18: 2382E03 (designed binder)
# chain: B1 chain with D29G, G30D, S58G, Y80F, T81D
# B19: 2381F11 (designed binder)
# chain: B1 chain
# B20: 2382C05 (designed binder)
# chain: B1 chain with G31A, S58G, T81S
# B21: 2382D03 (designed binder)
# chain: B1 chain with G30E, G31A, S58G, Y80F, T81D
# B22: 2382E05 (designed binder)
# chain: B1 chain with D29E, S58G, Y80F, T81D
# B23: 2451C06 (designed binder)
# chain: MGVSDVPRDLEVVAATPTSLLISWDAPAGAASYGYYRITYGETGGNSPVQEFTVPVSKGTATISGLKPGVDYTITVYAVEFPFPGAGYYHRPISINYRTEIDKPSQHHHHHH
# B24: 2451H07 (designed binder)
# chain: B11 chain
# B25: 2381D04 (designed binder)
# chain: B3 chain
# B26: 2382F05 (designed binder)
# chain: MGVSDVPRDLEVVAATPTSLLISWDAPAEAGKHYGYYRITYGETGGNSPVQEFTVPVSKGTATISGLKPGVDYTITVYAVEFDFPGAGYYHRPISINYRTEIDKPSQHHHHHH
# Biological target: T1, human PCSK9 (proprotein convertase subtilisin kexin type 9) (human, UniProt Q8NBP7 31-692)
# T1 construct: Directly immobilized (SPR ProteOn), biotinylated (BLI), or in solution, depending on the assay; also called hPCSK9
# Test: FRET, competitor ATI001125
# Source text: (§1) Table 11 summarizes the overall data from these three FRET assays.
row,IC50 [nM],Binder
1,0.8,B1
2,1,B2
3,0.5,B3
4,0.5,B4
5,0.5,B5
6,0.6,B6
7,0.6,B7
8,0.3,B8
9,0.5,B9
10,0.4,B10
11,0.2,B11
12,0.4,B12

# Biological target: T2, human PCSK9 (proprotein convertase subtilisin kexin type 9) (human, UniProt Q8NBP7 31-692)
# T2 construct: immobilized directly (ProteOn), biotinylated (Octet) or in solution, according to the assay; also called hPCSK9; PCSK9-AF647 (labelled form)
# Test: BLI (Octet Red), 37 C
# Protocol: (§2) Tips were then immersed into a buffer-only well for observation of Adnectin dissociation. Experiments were performed in a temperature controlled environment at either 25 or 37° C., and the oscillation speed was set at 1500 rpm.
# (§3) Binding interaction analysis was performed using proprietary software from Fortebio (Fortebio Data Analysis Software version 6.3.0.36). Global fits were performed for all samples, using a 1:1 binding model. The nature of these global fits constrained all values of concentration to a single pair of association and dissociation rates that were themselves constrained to each other. Affinities (KD), association and dissociation rates were averaged over the various loading levels used in the analysis.
row,Kd [nM],Binder
1,4.11,B13
2,1.12,B14
3,3.23,B15
4,0.677,B16
5,1.11,B17
6,2.94,B18
7,1.59,B19
8,2.49,B20
9,1.53,B21
10,0.604,B22
11,1.27,B23
12,2.08,B24
13,0.237,B25
14,4.54,B26

# Biological target: T2, human PCSK9 (proprotein convertase …)
# Test: cell-based or functional assay
row,LDLR Depletion (% inhibition at 75 nM) [%],Binder
1,125,B13
2,133,B14
3,94.4,B15
4,102,B16
5,146,B17
6,89.5,B18
7,110,B19
8,105,B20
9,80.4,B21
10,104,B22
11,89.4,B23
12,88.8,B24
13,119,B25
14,72.2,B26

# Biological target: T2, human PCSK9 (proprotein convertase …)
# Test: PCSK9:EGFA FRET, competitor EGFA peptide
row,EC50 [nM],Binder
1,2.6,B13
2,3.1,B14
3,3.4,B15
4,3.4,B16
5,2.9,B17
6,2.4,B18
7,4,B19
8,4,B20
9,3.3,B21
10,2.8,B22
11,1.2,B23
12,0.2,B24
13,2.9,B25
14,2.4,B26

# Biological target: T1, human PCSK9 (proprotein convertase …)
# Test: FRET, competitor EGFA peptide
# Source text: as §1
EC50 [nM],IC50 [nM],Binder
4,4,B1
2.6,2.6,B2
2.9,2.9,B3
2.5,2.5,B4
2.4,2.4,B5
3.8,3.8,B6
3.5,3.5,B7
0.9,0.9,B8
3,3,B9
2.6,2.6,B10
0.2,0.2,B11
2.6,2.6,B12

# Biological target: cynomolgus monkey PCSK9 (cynomolgus monkey, UniProt A0A7N9D9N8 150-747)
# Test: FRET, competitor EGFA peptide
# Source text: as §1
row,EC50 [nM],Binder
1,26.5,B1
2,27.1,B2
3,12,B3
4,9.8,B4
5,17.3,B5
6,37.2,B6
7,23.9,B7
8,17.9,B8
9,18.1,B9
10,18.2,B10
11,27.1,B11
12,13.9,B12

# Biological target: T1, human PCSK9 (proprotein convertase …)
# Test: BLI, biotinylated hPCSK9 on sensor tips
# Protocol: as §2, §3
Kd [nM],koff [s⁻¹],kon [M⁻¹ s⁻¹],Binder
1.59,0.000522,323000,B1
4.11,0.00094,213000,B2
0.237,6.9e-05,266000,B3
3.29,0.000831,265000,B4
0.527,0.00016,309000,B5
0.656,0.000291,451000,B6
0.757,0.000233,349000,B7
1.86,0.000483,251000,B8
2.35,0.000977,394000,B9
1.4,0.000382,288000,B10
2.08,0.00094,448000,B11
0.304,0.000164,533000,B12

# Biological target: T1, human PCSK9 (proprotein convertase …)
# Test: FRET direct binding, anti-his6 antibody
# Source text: as §1
row,EC50 [nM],Binder
1,< 1,B1
2,4.1,B2
3,3.7,B3
4,8.4,B4
5,4.2,B5
6,4,B6
7,2.9,B7
8,3.6,B8
9,3.1,B9
10,4.6,B10
11,13.2,B11
12,3.7,B12

# Biological target: T1, human PCSK9 (proprotein convertase …)
# Test: BLI Octet Red, 37 C
# Protocol: as §2, §3
row,Kd [nM],Binder
1,1.59,B1
2,4.11,B2
3,0.237,B3
4,3.29,B4
5,0.527,B5
6,0.656,B6
7,0.757,B7
8,1.86,B8
9,2.35,B9
10,1.4,B10
11,2.08,B11
12,0.304,B12

# Reference: patent publication US20120094909A1 (Bristol-Myers Squibb, published 2012)
